{
  "source": "patent US20230357364A1",
  "binders": {"B1": {"name": "L12.bP11A06 (antibody, V domains shown)", "VH": "EVQLVESGGGLIQPGGSLRLSCAASGLTVSSNYMSWVRQAPGKGLEWVSVIYSGGSTFYADSVKGRFTISRDNSKNTLYLQMNSLRAEDTAVYYCARDLDVYGLDVWGQGTTVTVSS", "VL": "DIVMTQSPSFLSASVGDRVTITCRASQGISSYLAWYQQKPGKAPKLLIYAASTLQSGVPSRFSGSGSGTEFTLTISSLQPEDFATYYCQQLNSYPPKFTFGPGTKVEIK"}},
  "target": "SARS-CoV-1 RBD (RBD-1) (SARS-CoV-1)",
  "assay": "ELISA",
  "details": "remark: other sources report otherwise",
  "data": [
    {"binder": "B1", "values": [
      {"measurement": "EC50", "result": "> 50", "unit": "µg/mL"}
    ]}
  ]
}
